Assay results published in patent publication US20170319722A1.
One block for each binder: values may come before it. Square brackets hold non-standard residues; d marks the D form. Primed or numbered codes have the meaning given here. Ends that are not written are not given here. * marks the point of attachment. PEG3′ = PEG linker of three ethylene glycol repeat units; Biotin = O=C1N[C@H]2[C@H](CS[C@H]2CCCCC(=O)*)N1; Lys(N3) = [N-]=[N+]=NCCCC[C@H](N)C(=O)O; Pra = C#CC[C@H](N)C(=O)O

What was measured:
[1] = biological target: His-tagged CD8α human recombinant protein (MBS968456, MyBioSource) (human) (UniProt P01732); test: sandwich ELISA; biotinylated biligand on NeutrAvidin plate, His-tagged CD8α titrated
[2] = biological target: His-tagged CD8α human recombinant protein (TP760215, Origene) (human) (UniProt P01732); test: sandwich ELISA; biotinylated ligand on NeutrAvidin plate, His-tagged CD8α titrated, anti-His-AP detection
[3] = biological target: His-tagged CD8α human recombinant protein (MBS968456, MyBioSource) (human) (UniProt P01732); test: sandwich ELISA; biligand against its single macrocycles Cy(HGRGH) and Cy(wplrf)
[4] = biological target: His-tagged CD8α human recombinant protein (MBS968456, MyBioSource) (human) (UniProt P01732); test: sandwich ELISA; biotinylated biligand on NeutrAvidin plate, His-tagged CD8α titrated, anti-His-AP detection
[5] = biological target: His-tagged CD8α human recombinant protein (MBS968456, MyBioSource) (human) (UniProt P01732); test: ELISA with His-tagged CD8α human recombinant protein
[6] = biological target: His-tagged CD8α human recombinant protein (TP760215, Origene) (human) (UniProt P01732); test: sandwich ELISA; range told of the group, upper end tied to Cy(rwfnv) by the legend of FIG. 5

Sequence of His-tagged CD8α human recombinant protein (MBS968456, MyBioSource) (human) (P01732 22-182 limits assumed): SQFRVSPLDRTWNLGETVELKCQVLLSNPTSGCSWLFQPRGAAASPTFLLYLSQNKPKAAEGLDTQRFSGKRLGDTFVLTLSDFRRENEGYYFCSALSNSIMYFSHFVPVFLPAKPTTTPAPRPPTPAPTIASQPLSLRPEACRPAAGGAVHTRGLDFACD
Sequence of His-tagged CD8α human recombinant protein (TP760215, Origene) (human) (P01732 22-182 limits assumed): as above

B1: Biotin-PEG3-Cy(HGRGH)-PEG7-Cy(wplrf) (peptide)
peptide 1: {Biotin-PEG3′}-[Pra]HGRGH
peptide 2: [Pra][dW][dP][dL][dR][dF]
modifications: not fully specified (some residues, C-terminus); printed as Biotin-PEG3-Cy(HGRGH)-PEG7-Cy(wplrf); numbers in words are those of the source; also: joined C-terminally through a PEG7 linker to the second macrocycle, triazole to a chain's N/C-terminus
fold below the affinity of the optimal linker (PEG5) biligand [1]: 10 fold

B3: Biotin-PEG3-Cy(HGRGH)-PEG4-Cy(wplrf) (peptide)
peptide 1: {Biotin-PEG3′}-[Pra]HGRGH
peptide 2: [Pra][dW][dP][dL][dR][dF]
modifications: not fully specified (some residues, C-terminus); printed as Biotin-PEG3-Cy(HGRGH)-PEG4-Cy(wplrf); numbers in words are those of the source; also: joined C-terminally through a PEG4 linker to the second macrocycle, triazole to a chain's N/C-terminus
fold below the affinity of the optimal linker (PEG5) biligand [1]: 10 fold

B4: Biotin-PEG3-Cy(HGRGH)-PEG5-Cy(wplrf) (peptide)
peptide 1: {Biotin-PEG3′}-[Pra]HGRGH
peptide 2: [Pra][dW][dP][dL][dR][dF]
modifications: not fully specified (some residues, C-terminus); printed as Biotin-PEG3-Cy(HGRGH)-PEG5-Cy(wplrf); numbers in words are those of the source; also: joined C-terminally through a PEG5 linker to the second macrocycle, triazole to a chain's N/C-terminus
fold improvement in affinity relative to the individual PCC macrocyclic ligands [3]: > 30 fold
EC50 [4]: 0.2 nM

B6: Biotin-PEG3-Cy(HGRGH)-PEG3-Cy(wplrf) (peptide)
peptide 1: {Biotin-PEG3′}-[Pra]HGRGH
peptide 2: [Pra][dW][dP][dL][dR][dF]
modifications: not fully specified (some residues, C-terminus); numbers in words are those of the source; also: joined C-terminally through a PEG3 linker to the second macrocycle, triazole to a chain's N/C-terminus
fold below the affinity of the optimal linker (PEG5) biligand [1]: 10 fold

B8: Biotin-PEG3-Cy(HGRGH)-PEG6-Cy(wplrf) (peptide)
peptide 1: {Biotin-PEG3′}-[Pra]HGRGH
peptide 2: [Pra][dW][dP][dL][dR][dF]
modifications: not fully specified (some residues, C-terminus); printed as Biotin-PEG3-Cy(HGRGH)-PEG6-Cy(wplrf); numbers in words are those of the source; also: joined C-terminally through a PEG6 linker to the second macrocycle, triazole to a chain's N/C-terminus
fold below the affinity of the optimal linker (PEG5) biligand [1]: 10 fold

Now from value to binder:

EC50 [2]: 16 nM
B2: biotin-PEG3-Cy(wplrf) (peptide)
peptide: WPLRF
modifications: all residues D-amino acids (lower case); N-terminal biotin-PEG3; triazole-cyclized (Cy) between flanking Pra and Az4

EC50 [2]: 56 nM
B5: biotin-PEG3-Cy(ffrly) (peptide)
peptide: FFRLY
modifications: all residues D-amino acids (lower case); N-terminal biotin-PEG3; triazole-cyclized (Cy) between flanking Pra and Az4

EC50 [5]: 0.058 nM
B7: Cy(Ghtwp)-Lys(Biotin)-PEG1-Cy(hGrGh) (peptide)
peptide 1: [Pra]G[dH][dT][dW][dP]
peptide 2: [Pra][dH]G[dR]G[dH][Lys(N3)]
modifications: not fully specified (C-terminus); printed as Cy(Ghtwp)-Lys(Biotin)-PEG1-Cy(hGrGh); also: triazole to a chain's N/C-terminus, triazole to a chain's N/C-terminus

EC50 [6]: 62 nM
EC50 [2]: 62 nM
B9: biotin-PEG3-Cy(rwfnv) (peptide)
peptide: RWFNV
modifications: all residues D-amino acids (lower case); N-terminal biotin-PEG3; triazole-cyclized (Cy) between flanking Pra and Az4

EC50 [2]: 9 nM
B10: biotin-PEG3-Cy(wsvnv) (peptide)
peptide: WSVNV
modifications: all residues D-amino acids (lower case); N-terminal biotin-PEG3; triazole-cyclized (Cy) between flanking Pra and Az4
